This passage reports bacteria recovered from the urogenital tract 24 h after vaginal infection, CEAtg mice (human CEA on mucosal surfaces) against wildtype mice results from article PMC4865239.

Where only a bound is given, the exact number is not on record here.

The target in experiment [1] is CEACAM-binding Opa protein (OpaCEA) from N. gonorrhoeae, expressed in E. coli (E. coli OpaCEA) (Neisseria gonorrhoeae).
Experiment [2] addresses AfaE-III adhesin of uropathogenic E. coli strain A30 (E. coli AfaE-III) (E. coli (uropathogenic strain A30)).

For the substance “GFP-tagged amino-terminal IgV-like domain of human CEA (CEA-N) (domain or fragment)”, the values for the bacteria recovered from the urogenital tract 24 h after vaginal infection, CEAtg mice (human CEA on mucosal surfaces) against wildtype mice in experiment [1] and in experiment [2] were greater than 30 fold and greater than 80 fold, respectively.
